# Test results reported in paper PMC10011731.
# Target: Taxol-stabilized microtubules (bovine brain tubulin) (bovine) (UniProt Q6B856)
# Test: TIRF microscopy of purified proteins on surface-bound microtubules (in vitro reconstitution); Taxol-stabilised biotinylated microtubules bound to NeutrAvidin coverslips; 100 nM CLASP2α-GFP or 100 nM GFP-L-TOG2-S with […] TRITC-phalloidin F-actin flowed in; imaging buffer with MRB80, Taxol, 0.2 mM ATP; 35°C; PCC after 10 min, time-lapse up to 40 min
substance,measurement,value
His-CLASP2α-EGFP-Strep (natural protein),Pearson correlation coefficient (PCC) of the CLASP2α-GFP and microtubule signals,0.88
